Results as given in the supplement of paper PMC9170038.

What was measured:
[1] = test system: MS2 coat protein; assay: apparent KD of MS2 coat protein; higher = weaker reporter binding; conditions: Eterna round: R101
Method: (§1)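 RNA-MaP: designed FMN/MS2 RNA switches (84 nt design region) are transcribed on-chip within common flanks and titrated with SNAP-549-labelled MS2 coat protein (about 1-3000 nM) in 100 mM Tris pH 7.5, 80 mM KCl, 4 mM MgCl2, without or with 200 uM FMN. Median apparent KD per design; activation ratio = KD,OFF / KD,ON.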

[2] = test system: MS2 coat protein; assay: apparent KD of MS2 coat protein; designed switch direction (-1 OFF switch, 1 ON switch): 1; higher = weaker reporter binding; conditions: Eterna round: R98
Method: as §1

Row | Sequence | apparent KD of MS2 coat protein ([1]; input ligand: FMN 200 uM) [nM] | apparent KD of MS2 coat protein ([1]; input ligand: none) [nM] | apparent KD of MS2 coat protein ([2]; input ligand: FMN 200 uM) [nM] | apparent KD of MS2 coat protein ([2]; input ligand: none) [nM]
1 | AAACUGCCACAUGAGGAUCACCCAUGUAAAUAAAGUAUUUGAAGAAGGGCGAUAGCAAAGCUAUCGCAGGAUAUUCUCAGGCAG [#GuReductionToAU - jl-sng2-2.35] (puzzle (switch architecture): Inverted Same State NG 3) | 8.34 | 43.7 |  | 
2 | CAUGUCCUCACAGGAUAUGCACCACUUUGUGGUGCAGAAGGGUGGAAACAUGAGGAUCACCCAUGUGGACAUGAUAUAUUUAAU [Denovo 7] |  |  | 22.4 | 164
3 | CGAGACACUUGAGGAUAUGCUCAGGAUAACUGAGCAGAAGGCAGGAAAACCUGAGGAUCACCCAGGUAACUGGAAAGUCUCGAA [Same State NG1 - A3C, U17G Submission 5F-G46A] |  |  | 16.9 | 17.9
4 | CUGCAAUUCUUAGGAUAUGCUCAGGAUAACUGAGCAGAAGGAAGAUAUACCUGAGGAUCACCCAGGUUAAACUGGAGCAGAAUA [Same State NG1 - A3C, U17G Submission 8B] |  |  | 33.6 | 179
5 | CUGCGAUUCUUAGGAUAUCGAGUGGAAUACACUCGAGAAGGAAGAAUAACCUGAGGAUCACCCAGGUAAUACUGAAGCAGAAUA [Same State NG1 - A3C, U17G Submission 9C] |  |  | 23.4 | 32.7
6 | GCACUCAAGUUAGGAUAUGGAUCGGAAACCGAUCCAGAAGGAACACGAAAACAUGAGCAUCAGCCGUGUUCCAGAAACGAGUGC [SameSame 14 - Jieux - Same State NG 1] |  |  | 347 | 917
7 | GGACGUCACAUUAACAUGAGGAUCACCCAUGUCAAAAGACAUGAGGAUAUGGAUCCUAAUUGGAUCCAGAAGGCAUGGACGUCC [EliMod 1 - Jieux - Same State NG 3] |  |  | 38.9 | 680
8 | GGAUCCAUCACAGGAUAUGCUGGACUUUGUCCAGCAGAAGGGUGACAUGAGGAUCACCCAUGUACAAAGGAUCCUAUAUUUAAU [Denovo 28] |  |  | 45.2 | 377
9 | GGUCCAUCAUGAGGAUAUGGCACCUUAUUGGUGCCAGAAGGCAUGUCUUUUGACAUGAGGAUCACCCAUGUAAUAAAUUGGACC [Pyrimidine booster 6] |  |  | 130 | 1920
10 | GUAGCAUACCGAGGAUAUUCAUAUAUGAAAAUAACAUGAGGAUCACCCAUGUGGCGAAAGCCUUGGGAGAAGGCGGAAUGCUAC [Xeinanis 75 22] |  |  | 34.4 | 490
11 | GUGCACACUCGAGGAUAUCGGAGAUUUCUCCUUCGAGAAGGCGAUUCGUGCCGUGUUAUUCUGGACAUGAGGAUCACCCAUGUG [LRO026_SS NG 1 mod JR_SSNG1_Sub034] |  |  | 35.4 | 110
12 | UAUAUAUGGUGAGGAUAUGCAAAGGAUCACCUUGUAGAAGGCAUCAGGGUAGAAGGUGCAAGGAUCACCUGUAAGGAUAUAUCC [pwkr2 ssNG1 DX.25] |  |  | 447 | 1560
13 | UCACUCACGUCAGGAUAUGGAUCGGAAAACGAUCCAGAAGGGACCUGCAAACGUGAGGAUCACCCACGUUCCAAUAACGAGUGA [SameSame 11 - Jieux - Same State NG 1] |  |  | 29.7 | 35.4
14 | UGAUCGCUUGGAGGAUAUCCAACUAUCAUAGUUGGAGAAGGCCAAGCUACAGAGCUAAGCUUGGAAGUCACUUCCGAUCAACAC [pwkr ssNG1 F9.4.3] |  |  | 49.7 | 59.1
15 | UGGAUGGUAUGAGGAUAUGCGCGCGAAACGCGCGCAGAAGGCAUGUCAAUAGACAUGAGGAUCACCCAUGUAUUAUCCAUCCAA [MatMod 9 - Jieux - Same State NG 1] |  |  | 39.4 | 300
16 | UUUACAUGAGGAUCACCCAUGUCUGUCACGCGUGUGUGCAAUCAGGAUAUGAUCUCAAGAAUGAAUUAGAAGGGAUAACGUGAG [Attempt 5] |  |  | 354 | 366
